Experimental data: article PMC4097036 (Molecular immunology, 2014)

How the values were obtained:
[1] = target: anti-Bla g 1 scFv (chicken); experiment: crystal structure
[2] = target: rBla g 1-EC (combined with the scFv for crystallography) (Blattella germanica, UniProt Q9UAM5); experiment: SEC
[3] = target: rBla g 1-EC L60A, with GST tag (Blattella germanica, UniProt Q9UAM5, point mutant); experiment: ELISA
[4] = target: rBla g 1-EC V83A, with GST tag (Blattella germanica, UniProt Q9UAM5, point mutant); experiment: ELISA
[5] = target: rBla g 1-EC E200A, with GST tag (Blattella germanica, UniProt Q9UAM5, point mutant); experiment: ELISA
[6] = target: rBla g 1-EC N104A, with GST tag (Blattella germanica, UniProt Q9UAM5, point mutant); experiment: ELISA
[7] = target: rBla g 1-EC I53A, with GST tag (Blattella germanica, UniProt Q9UAM5, point mutant); experiment: ELISA
[8] = target: rBla g 1-EC D76A, with GST tag (Blattella germanica, UniProt Q9UAM5, point mutant); experiment: ELISA
[9] = target: rBla g 1-EC Q183A, with GST tag (Blattella germanica, Bla g 1.0101, UniProt Q9UAM5, point mutant); experiment: ELISA
[10] = target: rBla g 1-EC N93A, with GST tag (Blattella germanica, UniProt Q9UAM5, point mutant); experiment: ELISA
[11] = target: rBla g 1-EC H113A, with GST tag (Blattella germanica, UniProt Q9UAM5, point mutant); experiment: ELISA
[12] = target: rBla g 1-EC T80A, with GST tag (Blattella germanica, UniProt Q9UAM5, point mutant); experiment: ELISA
[13] = target: rBla g 1-EC Q41A, with GST tag (Blattella germanica, UniProt Q9UAM5, point mutant); experiment: ELISA
[14] = target: rBla g 1-EC E79A, with GST tag (Blattella germanica, UniProt Q9UAM5, point mutant); experiment: ELISA
[15] = target: rBla g 1-EC D50A, with GST tag (Blattella germanica, UniProt Q9UAM5, point mutant); experiment: ELISA
[16] = target: rBla g 1-EC E161A, with GST tag (Blattella germanica, Bla g 1.0101, UniProt Q9UAM5, point mutant); experiment: ELISA
[17] = target: rBla g 1-EC N96A, with GST tag (Blattella germanica, UniProt Q9UAM5, point mutant); experiment: ELISA
[18] = target: rBla g 1-EC N193A, with GST tag (Blattella germanica, Bla g 1.0101, UniProt Q9UAM5, point mutant); experiment: ELISA
[19] = target: rBla g 1-EC D107A, with GST tag (Blattella germanica, UniProt Q9UAM5, point mutant); experiment: ELISA

stoichiometry N [1]: 2 | stoichiometry N [2]: 1 Bla g 1 per scFv (printed as 2:2) | ΔΔG against wild type (RT ln(IC50 WT/IC50 mutant)) [3]: 0 kCal/mol | ΔΔG against wild type (RT ln(IC50 WT/IC50 mutant)) [4]: -0.33 kCal/mol | ΔΔG against wild type (RT ln(IC50 WT/IC50 mutant)) [5]: -0.02 kCal/mol | ΔΔG against wild type (RT ln(IC50 WT/IC50 mutant)) [6]: 0.4 kCal/mol | ΔΔG against wild type (RT ln(IC50 WT/IC50 mutant)) [7]: 0.09 kCal/mol | ΔΔG against wild type (RT ln(IC50 WT/IC50 mutant)) [8]: -1.1 kCal/mol | ΔΔG against wild type (RT ln(IC50 WT/IC50 mutant)) [9]: 0.33 kCal/mol | ΔΔG against wild type (RT ln(IC50 WT/IC50 mutant)) [10]: 0.31 kCal/mol | ΔΔG against wild type (RT ln(IC50 WT/IC50 mutant)) [11]: 0.09 kCal/mol | ΔΔG against wild type (RT ln(IC50 WT/IC50 mutant)) [12]: -1.7 kCal/mol | ΔΔG against wild type (RT ln(IC50 WT/IC50 mutant)) [13]: -0.05 kCal/mol | ΔΔG against wild type (RT ln(IC50 WT/IC50 mutant)) [14]: -1.2 kCal/mol | ΔΔG against wild type (RT ln(IC50 WT/IC50 mutant)) [15]: 0.06 kCal/mol | ΔΔG against wild type (RT ln(IC50 WT/IC50 mutant)) [16]: 0.33 kCal/mol | ΔΔG against wild type (RT ln(IC50 WT/IC50 mutant)) [17]: 0.33 kCal/mol | ΔΔG against wild type (RT ln(IC50 WT/IC50 mutant)) [18]: -2.1 kCal/mol | ΔΔG against wild type (RT ln(IC50 WT/IC50 mutant)) [19]: 0.13 kCal/mol
B1: anti-Bla g 1 scFv (scFv, V domains shown)
VH: AVTLDESGGGLQTPGGALSLVCKASGFTFSVYDMMWVRQAPSKGLEWVAGIGITGSTYYASAVKGRATISRDNGQSTVRLQLNNLRAEDTGTYYCARGGAYSINKLDTWGQGTEVIVSS
VL: QAALTQPSSVSANPGETVKITCSGGGSSSNYGWFQQKSPGSAPVTVIYNNNNRPSDIPSRFSGSKSGSTATLTITGVQADDEAVYFCGGRDSTYAGMFGAGTTLTVL
